Measurements as given in article doi:10.1101/495473 (bioRxiv, 2018).

Target: the molecule itself
Assay: SEC

B1: Plasmodium berghei phosphoglycolate phosphatase (PbPGP) (enzyme, P. berghei, UniProt A0A509AU59 1-322, looked up)
chain: MSLIVSEASQNNYFKDSENSYNSFMKEWKIEKRVNVKDLYQNFEVFFFDCDGVLWRGDTVINGAIEVINKLISDNKKVYFITNNSTKSRDTLLGKFHKLGFTCVKKEHIICTSYAIAKYFHSKEEYKSRKKKIYVIGEKGICDELDALNLVWLGSYKDNDKKVIIQDEGEIQIDNNIGAVVVAIDFNINYYKIQYAQLCINGLDAEFIVSNKDPLANFTSNQQWAGTGSIVASIEQVSFKKPKVLGKPNLFMIESVLKSLNIDLSKVVMIGDRLDTDIFFAQNCKIKSILVSTGVTDANVFLNHNNLNIKPDYFMKSILEFL
stoichiometry N: 2
